Measurements reported in patent US7629437.

Molecular target: T1, Ac-Leu-Thr-Phe-Lys-ACC
T1 chain: LTFK

B1: Cruzain (protein)
chain: APAAVDWRARGAVTAVKDQGQCGSCWAFSAIGNVECQWFLAGHPLTNLSEQMLVSCDKTDSGCSGGLMNNAFEWIVQENNGAVYTEDSYPYASGEGISPPCTTSGHTVGATITGHVELPQDEAQIAAWLAVNGPVAVAVDASSWMTYTGGVMTSCVSEQLDHGVLLVGYNDSAAVPYWIIKNSWTTQWGEEGYIRIAKGSNQCLVKEEASSAVVG
- cleavage products (HPLC and MALDI of the digest): Product fragments corresponding to cleavage between Thr-Phe were observed (data not shown)
